From the supplement of paper PMC12764529
± gives the half width of the 95% confidence interval.

What was measured:
[1] = folding stability dG unfold from chymotrypsin proteolysis; higher = more stable
Outline: (§1)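 How resistant each design was to proteolysis was captured as K50, inferred by Bayesian fitting of sequencing counts. Unfolding free energy was then derived relative to a sequence-predicted unfolded-state K50 and a shared folded-state K50, per protease or combined. Digestion used trypsin and chymotrypsin at 11 threefold-diluted concentrations plus a no-protease condition, on mini-proteins under 80 residues without cysteine in a PA-tagged cDNA display construct. Designs were kept only when AlphaFold2 dimer inter-PAE was above 15.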

[2] = folding stability dG unfold (combined trypsin and chymotrypsin); higher = more stable
Outline: as §1

[3] = folding stability dG unfold from trypsin proteolysis; higher = more stable
Outline: as §1

Sequence	folding stability dG unfold [1]	folding stability dG unfold [2]	folding stability dG unfold [3]
SWTFPILIRFPFDDPEDLDKAREMAEDLVRYLAEEFGWPVKIDKVKYERNPENGWVWIRAEITVTPPDDVSA [r9_105_TrROS]	5.31 ± 0.098 kcal/mol	4.9 ± 0.11 kcal/mol	3.62 ± 0.08 kcal/mol
SWWYIVTIKIWKPGNGEPKGPIMLFVRSPEEAEEIAEEPAPEHGYDVEVNVKRIPPDDMDDPEQMKEMMNSA [r9_864_TrROS]	2.56 ± 0.13 kcal/mol	2.07 ± 0.37 kcal/mol	1.82 ± 0.035 kcal/mol
SWWYMVKIEIENGGKPIKIPVPVNDLDDFIDNAREAIPPDLADQLPPNMEVEVEVMPIPRVDPENGKPRPSA [r9_111_TrROS]	1.42 ± 0.15 kcal/mol	1.1 ± 0.15 kcal/mol	0.866 ± 0.054 kcal/mol
SWYIIRIEIKIRNPKDGKSFDIEIMIHAPVEEAKEIAKEIASMFPGMRVEVKITEVMPMPPMTPEQLEKMSA [r9_421_TrROS]	3.721 ± 0.027 kcal/mol	3.25 ± 0.076 kcal/mol	2.23 ± 0.081 kcal/mol
SYLPESVPYDLVELTVVAKGKSPEYLEKKIKEAFKDVKIEPFYDPEKKLVTFKIVFPNKETAEKFKELVSSA [r9_764_TrMRF]	2.28 ± 0.041 kcal/mol	2.16 ± 0.07 kcal/mol	1.93 ± 0.054 kcal/mol
TPLTTSTTTVPPSEIATPVTFNAPLSPDTSVTITTYDSATGTTSPVFSTTSASVTLTDLPNVSTATVVVVSS [r1_224_JUSTAS]	-0.255 ± 0.23 kcal/mol	0.459 ± 0.068 kcal/mol	0.702 ± 0.018 kcal/mol
TTKTYTTPVIKKMTVTFDKTEGNEATLTITATLPDGTPVTLPFPLTLETGKLDPAVVEAAIKAAVATAIAQS [r1_124_JUSTAS]	1.37 ± 0.12 kcal/mol	1.23 ± 0.2 kcal/mol	0.892 ± 0.07 kcal/mol
WRIRVEIEMYNPDGDPMEMEIQIPVDKLQELRQEGEPFTKEELVDEIVEIIRDMMPEHGMPIEIKIVEIVPS [r1_174_TrROS]	1.76 ± 0.074 kcal/mol	1.76 ± 0.2 kcal/mol	1.64 ± 0.051 kcal/mol
